Test results reported in the supplement of paper PMC10598134.
± gives the standard deviation.

Tests used:
[1] = collision cross section of unmodified peptide (TIMS, N2, iRT-aligned); higher = larger / more extended gas-phase ion
Method: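 Unmodified synthetic counterpart peptides (ProteomeTools / JPT), analysed by nanoLC-TIMS-QTOF (dda-PASEF). 1/K0 was aligned run-wise to spiked iRT peptides and converted to CCS in N2 (Mason-Schamp). Values are the mean of 1-3 technical replicates for the most abundant feature at each charge state. The same unmodified peptide is repeated across rows and is averaged.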

[2] = collision cross section of modified peptide (TIMS, N2, iRT-aligned); higher = larger / more extended gas-phase ion
Method in brief: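 Synthetic peptide pools (~100 fmol/µL in 2% acetonitrile/0.1% formic acid, iRT standard spiked 1:40) were separated on a 120-min nanoflow C18 gradient at 60 °C. They were analysed on a timsTOF Pro/HT (dda-PASEF, nitrogen, ~2.4 mbar) and identified with MaxQuant. 1/K0 was calibrated with three reference ions and aligned run-wise to the median iRT peptide deviation. Collision cross section came from the Mason-Schamp equation, averaging 1–3 technical replicates of the most abundant feature per charge state.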

[3] = charge state: 3, modification: GlyGly (K)
[4] = charge state: 3, modification: Methyl (K)
[5] = charge state: 3, modification: Trimethyl (K)
[6] = charge state: 2, modification: Nitro (Y)

AAGQPYEQHAK
collision cross section ([1]; charge state: 2): 373.09 ± 0.48 Å² | collision cross section ([1]; charge state: 3): 423.62 ± 1.7 Å²

AAHGRGALAEAAR
collision cross section ([1]; charge state: 2): 390.08 ± 0.35 Å² | collision cross section ([1]; charge state: 3): 476.13 ± 1.3 Å²

AAINQKLIETGER
collision cross section ([1]; charge state: 2): 409.65 ± 1.4 Å² | collision cross section ([1]; charge state: 3): 476.29 ± 7.6 Å²

AAQASDLEKIHLDEK
collision cross section ([1]; charge state: 2): 447.85 ± 1.2 Å² | collision cross section ([1]; charge state: 3): 506 ± 5.5 Å²

AAYQAAIRGVGSAQSR
collision cross section ([1]; charge state: 2): 436.77 ± 1.2 Å² | collision cross section ([1]; charge state: 3): 509.17 ± 1.3 Å²

AEGYEVAHGGR
collision cross section ([1]; charge state: 2): 358.34 ± 0.55 Å² | collision cross section ([1]; charge state: 3): 438.28 ± 0.89 Å²

AGPNASIISLKSDK
collision cross section ([1]; charge state: 2): 408.7 ± 1.4 Å² | collision cross section ([1]; charge state: 3): 483.51 ± 6.7 Å²

AGQKLIDVNHYAK
collision cross section ([1]; charge state: 2): 420.25 ± 2.7 Å² | collision cross section ([1]; charge state: 3): 474.66 ± 4.5 Å²

AGRGFSLEELR
collision cross section ([1]; charge state: 2): 376.05 ± 0.67 Å² | collision cross section ([1]; charge state: 3): 459.45 ± 3.3 Å²

AIEINPDSAQPYK
collision cross section ([1]; charge state: 2): 394.83 ± 1.7 Å²

AIQLNPSYIR
collision cross section ([1]; charge state: 2): 373.91 ± 2.8 Å²

ALASIDSKLNQAK
collision cross section ([1]; charge state: 2): 410.25 ± 2 Å² | collision cross section ([1]; charge state: 3): 481.52 ± 3.4 Å²

YEEIVKEVSTYIK [_YEEIVK(Gluratylation)EVSTYIK_]
collision cross section ([2]; charge state: 2, modification: Glutarylation): 443.96 ± 1.5 Å²

YEEIVKEVSTYIK [_YEEIVK(GlyGly (K))EVSTYIK_]
collision cross section ([2]; charge state: 2, modification: GlyGly (K)): 459.86 ± 0.94 Å² | collision cross section [2, 3]: 512.47 ± 1.1 Å²

YEEIVKEVSTYIK [_YEEIVK(Malonyl)EVSTYIK_]
collision cross section ([2]; charge state: 2, modification: Malonyl): 438.59 ± 1.6 Å²

YEEIVKEVSTYIK [_YEEIVK(Methyl (K))EVSTYIK_]
collision cross section ([2]; charge state: 2, modification: Methyl (K)): 440.62 ± 1.8 Å² | collision cross section [2, 4]: 492.07 ± 3.2 Å²

YEEIVKEVSTYIK [_YEEIVK(Succinyl)EVSTYIK_]
collision cross section ([2]; charge state: 2, modification: Succinyl): 438.13 ± 0.83 Å²

YEEIVKEVSTYIK [_YEEIVK(Trimethyl (K))EVSTYIK_]
collision cross section ([2]; charge state: 2, modification: Trimethyl (K)): 455.74 ± 0.69 Å² | collision cross section [2, 5]: 498.32 ± 1.1 Å²

YEEIVKEVSTYIK [_YEEIVK(hydroxyisobutyryl)EVSTYIK_]
collision cross section ([2]; charge state: 2, modification: hydroxyisobutyryl): 436.97 ± 5 Å²

YEITEQR [_Y(Nitro (Y))EITEQR_]
collision cross section [2, 6]: 327.03 ± 0.71 Å²

YEITEQR [_Y(Phospho (Y))EITEQR_]
collision cross section ([2]; charge state: 2, modification: Phospho (Y)): 328.08 ± 0.068 Å²

YEQEHAAIQDKLFQVAK [_YEQEHAAIQDK(Acetyl (K))LFQVAK_]
collision cross section ([2]; charge state: 3, modification: Acetyl (K)): 513.78 ± 1.6 Å²

YEQEHAAIQDKLFQVAK [_YEQEHAAIQDK(Biotin)LFQVAK_]
collision cross section ([2]; charge state: 3, modification: Biotin): 538 ± 1.6 Å²

YEQEHAAIQDKLFQVAK [_YEQEHAAIQDK(Butyryl)LFQVAK_]
collision cross section ([2]; charge state: 3, modification: Butyryl): 517.33 ± 1 Å²

YEQEHAAIQDKLFQVAK [_YEQEHAAIQDK(Dimethyl (K))LFQVAK_]
collision cross section ([2]; charge state: 3, modification: Dimethyl (K)): 556.37 ± 0.79 Å²

YEQEHAAIQDKLFQVAK [_YEQEHAAIQDK(Formyl)LFQVAK_]
collision cross section ([2]; charge state: 3, modification: Formyl): 510.23 ± 1.3 Å²

YEQEHAAIQDKLFQVAK [_YEQEHAAIQDK(Gluratylation)LFQVAK_]
collision cross section ([2]; charge state: 3, modification: Glutarylation): 519.4 ± 1.2 Å²

YEQEHAAIQDKLFQVAK [_YEQEHAAIQDK(GlyGly (K))LFQVAK_]
collision cross section [2, 3]: 562.29 ± 1.2 Å²

YEQEHAAIQDKLFQVAK [_YEQEHAAIQDK(Malonyl)LFQVAK_]
collision cross section ([2]; charge state: 3, modification: Malonyl): 515.74 ± 1.8 Å²

YEQEHAAIQDKLFQVAK [_YEQEHAAIQDK(Methyl (K))LFQVAK_]
collision cross section [2, 4]: 557.9 ± 0.6 Å²

YEQEHAAIQDKLFQVAK [_YEQEHAAIQDK(Succinyl)LFQVAK_]
collision cross section ([2]; charge state: 3, modification: Succinyl): 518.31 ± 1.6 Å²

YEQEHAAIQDKLFQVAK [_YEQEHAAIQDK(Trimethyl (K))LFQVAK_]
collision cross section [2, 5]: 561.55 ± 0.91 Å²

YEQEHAAIQDKLFQVAK [_YEQEHAAIQDK(hydroxyisobutyryl)LFQVAK_]
collision cross section ([2]; charge state: 3, modification: hydroxyisobutyryl): 519.87 ± 2 Å²

YGRGQLNYPLPDFSK [_YGR(Citrullination (R))GQLNYPLPDFSK_]
collision cross section ([2]; charge state: 2, modification: Citrullination (R)): 439.93 ± 0.95 Å² | collision cross section ([2]; charge state: 3, modification: Citrullination (R)): 492.79 Å²

YGRGQLNYPLPDFSK [_YGR(Methyl (R))GQLNYPLPDFSK_]
collision cross section ([2]; charge state: 3, modification: Methyl (R)): 496.04 ± 0.79 Å²

YHEDIFGLTLR [_Y(Nitro (Y))HEDIFGLTLR_]
collision cross section [2, 6]: 391.96 ± 0.8 Å² | collision cross section ([2]; charge state: 3, modification: Nitro (Y)): 465.92 ± 0.23 Å²
